Assay [1] addresses T1, Fas-Fc (extracellular part of Fas) (Mus musculus, UniProt P25446).
T1 construct: purchased R&D
T1 sequence (P25446 22-169 limits assumed): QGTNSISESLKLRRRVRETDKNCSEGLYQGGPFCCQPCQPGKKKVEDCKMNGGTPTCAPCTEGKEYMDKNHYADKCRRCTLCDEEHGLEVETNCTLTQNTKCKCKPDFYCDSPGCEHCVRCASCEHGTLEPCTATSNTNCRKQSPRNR
Description: Fas-Fc pull down assay with protein-A agarose. In kind it is binding. From the text:
The Met alpha but not beta chain binds to Fas (FIG. 1a). Various regions of the mouse Met cDNA corresponding to the alpha chain or the extra-cellular portion of the Met beta chain were cloned into expression vectors (pCRT7 TOPO/AlphaMet or pCRT7 TOPO/beta chain) and subjected to in vitro transcription/translation by a rabbit reticolucyte lysate translation system. Empty vector was included in each experiment as a control. The expressed proteins were labeled with ^35S-Methionine. Pull down assays were performed using Fas-Fc, a chimeric molecule which lacks the interacellular cytoplasmic domain and protein-A agarose as described in Wang et al., 2002. FIG. 1b is a schematic presentation of the Met alpha chain and its mutant version used to map the region interacting with Fas. The C-terminus of each construct contains a hexa-Histidine tag for ease of detection. Start cordon ATG was added to the N-terminally truncated constructs. The YLGA (SEQ ID NO:1) motif mutation was prepared by PCR, in which YLGA (SEQ ID NO:1) was replaced by DHER (SEQ ID NO:24). […] In vitro translated ^35S-methionine labeled truncated/mutated AlphaMet proteins were pulled down with 2 μg of Fas-Fc or the same amount of IgG. Lane 1: 10% of AlphaMet input; Lane 2: AlphaMet with IgG control; Lanes 3 to 8: pull down of various truncated AlphaMet proteins; N-terminal 1-106 residues; C-terminal truncated, residues 1-210; alpha chain, residues 1-306; alpha chain with transmembrane domain, 1-338; N-terminally truncated alpha chain, residues 100-306; and N-terminally truncated with addition of the transmembrane domain 100-338, respectively. FIG. 1d depicts the amino acid sequence alignment of alpha chain with FasL, determined using the CLUSTALW, SIM+LALNVIEW, and ALIGN at ExPASy Proteomic Tools (available on the internet at us.expresly.org/tools). The numbers indicate the amino acid residues of the indicated protein. […] Recombinant His-tagged AlphaMet or its mutant version were expressed in E. coli, purified with chromatography, and subjected to Fas-Fc (lanes labeled Fas) or control IgG pull down experiments, and detected by Western blot using anti-His antibody that recognizes C-terminal His. This antibody also recognizes the Fas-Fc which is also tagged at the C-terminus by His. […] Purified recombinant AlphaMet protein (approximately 10 μg) was mixed with Hepa 1-6 cells or Jurkat cell lysates and subjected to immunoprecicitation using anti-Fas antibody or control IgG followed by Western blot using anti His-tag antibody as a probe. […] After washing the wells, anti-human […]-HRP conjugates (1:20,000) were added to detect the bound Fas-Fc using TMD dye and the OD value was determined at a wavelength of 450 nm. […]

The test system of assay [2] is caspase-3 activation in Hepa 1-6 cells. Nature of the assay: Cleaved Caspase 3 in apoptotic Hepa 1-6 cell lysates. In kind it is cell-based, mouse. On the procedure:
For FIG. 4a, Jurkat cells (1.5×10^5) were overnight treated in triplicate with 5 ng/ml of crosslinked human Fas ligand with or without 5 μg/ml of recombinant AlphaMet or 1 μg/ml of the indicated polypeptides. Percent apoptosis was determined by Trypan Blue staining using a hemocytometer. The data are representative and were repeated at least four times. […] The 17 kDa fragment of cleaved Caspase 3 is visualized by this antibody. The blot was reprobed for β-actin as a loading control. For FIG. 4c, serum deprived Hepa 1-6 cells (3×10^5) were overnight treated with 1 μg/ml of crosslinked mouse Fas ligand with or without AlphaMet or the indicated polypeptide. Media were collected and centrifuged to pellet the dead cells. […] The data in FIG. 4c represents three independent experiments.

B1: alpha subunit of Met (AlphaMet), amino acid residues 1 to 306, His-tagged (receptor, mouse)
chain: MKAPTVLAPGILVLLLSLVQRSHGECKEALVKSEMNVNMKYQLPNFTAETPIQNVVLHGHHIYLGATNYIYVLNDKDLQKVSEFKTGPVLEHPDCLPCRDCSSKANSSGGVWKDNINMALLVDTYYDDQLISCGSVNRGTCQRHVLPPDNSADIQSEVHCMFSPEEESGQCPDCVVSALGAKVLLSEKDRFINFFVGNTINSSYPPGYSLHSISVRRLKETQDGFKFLTDQSYIDVLPEFLDSYPIKYIHAFESNHFIYFLTVQKETLDAQTFHTRIIRFCSVDSGLHSYMEMPLECILTEKRRKRHHHHHH
Turning to B1, the “Fas binding in Fas-Fc pull down” value was “bound specifically to the Fas molecule” in assay [1] (in vitro translated 35S-labeled proteins, autoradiography, listed as Met alpha chain); “bound Fas very efficiently” in assay [1] (in vitro translated 35S-labeled proteins, autoradiography, listed as full length AlphaMet); “bound avidly” in assay [1] (recombinant His-tagged proteins expressed and purified in E. coli, Western blot anti-His). The “Activation of caspase-3” value in assay [2] is reported as “also inhibited by the wild type”.

(Values after patent publication US20070184522A1, “Cell death modulation via antagonists of Fasl and Fas activation” (University of Pittsburgh of the Commonwealth System of …, priority 2004, published 2007).)
